Experimental data from patent US20240376149A1, “Novel Modulators of GABABR1a” (VIB VZW, priority 2021, published 2024).
*1 amine or outer side, *2 acyl side, *3 side chain or, on linkers, in order; H or OH if unused. Where a SMILES comes first, the peptide text is derived from it. Where no end group is shown, it is not given here. [ ]: non-standard residue; d: D form. The star is where a group is joined. X1 = CCn1cc(C[C@H](N[*:1])C(=O)[*:2])c2ccccc21; X3 = COc1ccc(C[C@H](N[*:1])C(=O)[*:2])cc1C; X4 = O=C([C@H](Cc1ccc(CO)cc1)N[*:1])[*:2]; Piperazinyl(4-Me) = CN1CCN(*)CC1; Ac4c = NC1(C(=O)O)CCC1

B1: VIB-0068896 (peptide)
peptide: DIXWS
modifications: D-aspartic acid at position 1; position 3 (X) is the non-natural residue F44 = (4-methylphenyl)methanol
notes: Peptidomimetic 5-mer; X marks the non-natural residue
B2: VIB-0068912 (peptide)
peptide: DIXWS
modifications: D-aspartic acid at position 1; position 3 (X) is the non-natural residue F86 = 1-chloro-4-methylbenzene
notes: as for B1
B3: VIB-0068909 (peptide)
peptide: DIXWS
modifications: D-aspartic acid at position 1; position 3 (X) is the non-natural residue F57 = 4-methylaniline
notes: as for B1

Biological target: T1, Sushi domain 1 of the human GABA B1a receptor (human, UniProt Q9UBS5 26-96)
T1 construct: Purified recombinant protein from E. coli; also called SD1; GABABR1a-SD1
T1 sequence (Q9UBS5 26-96 limits assumed): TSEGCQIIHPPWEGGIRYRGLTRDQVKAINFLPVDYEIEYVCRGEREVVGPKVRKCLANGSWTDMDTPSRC
Assay: ITC, peptide titrated into purified SD1
Settings: not given
Experimental: The Sushi-1 protein was dialysed overnight to PBS buffer and diluted to 30 μM in the same buffer. The peptides were resuspended in PBS at a stock concentration of 3 mM and diluted further in the same buffer to 300 μM. ITC experiments were performed on a Microcal ITC200 device. Titrations comprised 26×1.5 μL injections of peptide into protein, with 90 s intervals. An initial injection of ligand (0.5 μL) was made and discarded during data analysis. The data were fitted to a single binding site model using the Microcal LLC ITC₂₀₀. Original software provided by the manufacturer.

Which Kd does the source give for PIHWS [VIB_P45] here?
Its Kd is 38 µM.

How did the Kd turn out when DVHWS [VIB_P23] was run?
Its Kd is 25.1 µM.

How did the Kd turn out when B1 was run?
The Kd was 7.46 µM.

Biological target: T1, Sushi domain 1 of the human GABA B1a …
Assay: FP competition vs FITC-9mer on purified SD1
Settings: not given
Experimental: (§1) To screen for GABABR1a binders using unlabelled test compounds, the assay was turned into a competition assay using FITC-9mer. […] To validate this inhibitor assay, the IC50 values were determined of the 17-mer, 9-mer, 5-mer as well as those from 3 negative controls: 10-mer, scrambled 17-mer and a scrambled 9-mer (FIG. 2).
Based on structural information of DIYWS-SD1 and DIWWS-SD1 co-crystals, 48 peptides containing non-natural residues were manually designed and checked for binding to the GABABR1a SD1 in the FP assay at a concentration of 50 μM. These non-natural peptides were categorized based on the IC50 values obtained in the FP assay (Table 3). […] The listed non-natural 5-mers all share D-aspartate was on position 1 (residue position 4 of the 9-mer), L-isoleucine on position 2 (residue position 5 of the 9-mer), L-tryptophane on position 4 (residue position 7 of the 9-mer) and L-serine on position 5 (residue position 8 of the 9-mer), while position 3 is selected from the list consisting of L-tyrosine, isoethylmethyl-benzene, 6-chloro-3-methyl-1H-indole, methylcyclohexane, ethylcyclohexane, 2-naphthalene, ethylbenzene, 1,1-difluoro-4-cyclohexyl, 4-methyl-1-methoxy-2-methylbenzene, 1-chloro-4-methylbenzene, 4-methylphenyl-methanol, 3-methylbenzoic acid and 4-methylaniline.

How did the “% inhibition 50 µM” value turn out when B2 was run?
The value was 66.2%.

And the IC50?
Its IC50 is 32.7 µM.

How did the “% inhibition 50 µM” value turn out when B3 was run?
The value was 44.2%.

What about the IC50 of the same molecule?
Its IC50 is 88.3 µM.

Which results are given for [dD]IYWS-{N‑(1,3,4-thiadiazol-2-yl)amide} (also called VIB-0068870-001; dIYWS*) [VIB-0068870]?
% inhibition 50 µM: 34.6%; IC50: 16.5 µM

Which results are given for [dD]IYWS-{N‑(2-(4-methylpiperazin-1-yl)-2-oxoethyl)amide} (also called dIYWS**) [VIB-0068875]?
% inhibition 50 µM: 41.8%; IC50: 71.2 µM

Which results are given for {(1-aminocyclobutyl)N‑methanone}-[dD]IYWS (not fully specified, also called *dIYWS) [VIB-0068884]?
% inhibition 50 µM: 41.5%; IC50: 100 µM

For [dD]IYYS (also called dIYYS) [VIB-0068914], which “% inhibition 50 µM” value is on record?
Its value is 72.4%.

[dD]IYWS (also called dIYWS) [VIB-0068902] was tested. Which “% inhibition 50 µM” value did it give?
Its value is 76.8%.

B1 was tested. Which “% inhibition 50 µM” value did it give?
Its value is 56.6%.

And the IC50?
The IC50 was 48 µM.

Biological target: T1, Sushi domain 1 of the human GABA B1a …
Assay: FP competition vs FITC-9mer on purified SD1
Settings: not given
Remark: another data set of the same source
Experimental: Next, 35 variants of the DVWWG 5-mer peptide containing natural residues were tested in the above described FP assay. The peptides were tested at a concentration of 50 μM.
(§2) To determine if the peptides of this application were able to disrupt the SD1-9-mer complex, each peptide (in single point or dose-response curve) tested was incubate with SD1 protein for 1 h at RT. After this initially incubation, FITC-9mer was added to the previous mix and incubated during 2 h at RT. The signal intensity was measure in an appropriate plate reader using the following settings: Number of flashes per well: 200; Excitation: F482-16; Dichroic filter: FLP 504; Emission A F530-40; Gain A: 738, Gain B: 736. The assay was conducted in a 384-well plate.

What does the source list for DIYWS (not fully specified, also called VIB_43; DIYWS) [VIB_P43]?
% inhibition 50 µM: 48.6%; IC50: 21.2 µM

How did the “% inhibition 50 µM” value turn out when NIWWG [VIB_P65] was run?
The value was 41.4%.

GVYWS [VIB_P60] was tested. Which “% inhibition 50 µM” value did it give?
The value was 47.5%.

With DIFWS [VIB_P35] as the molecule, how does the “% inhibition 50 µM” value read?
Its value is 55.9%.

NIYWG [VIB_P68] was tested. Which “% inhibition 50 µM” value did it give?
Its value is 15.9%.

NIWWS [VIB_P66] was tested. Which “% inhibition 50 µM” value did it give?
The value was 66.4%.

With DVYWG [VIB_P53] as the molecule, how does the “% inhibition 50 µM” value read?
Its value is 33.5%.

How did the “% inhibition 50 µM” value turn out when PIYWS [VIB_P49] was run?
The value was 25%.

Which “% inhibition 50 µM” value does the source give for NIYWS [VIB_P63] here?
Its value is 19.4%.

Which results are given for DVWWS [VIB_P39]?
% inhibition 50 µM: 85.5%; IC50: 14 µM

DIYWG [VIB_P42] was tested. Which “% inhibition 50 µM” value did it give?
Its value is 47.9%.

With DIWWG (also called VIB_29) [VIB_P29] as the molecule, how does the “% inhibition 50 µM” value read?
The value was 75%.

What about the IC50 of the same molecule?
Its IC50 is 16.5 µM.

For NFYWS [VIB_P58], which “% inhibition 50 µM” value is on record?
Its value is -7%.

Which “% inhibition 50 µM” value does the source give for GIYWS [VIB_P47] here?
Its value is 53.4%.

How did the “% inhibition 50 µM” value turn out when NVWWS [VIB_P48] was run?
The value was 33.5%.

Which “% inhibition 50 µM” value does the source give for SVYWS [VIB_P41] here?
The value was 5.28%.

How did the “% inhibition 50 µM” value turn out when NVWWG [VIB_P56] was run?
Its value is 17.9%.

Which results are given for DIHWS [VIB_P37]?
% inhibition 50 µM: 20%; IC50: 35.6 µM

Which “% inhibition 50 µM” value does the source give for PVHMS [VIB_P44] here?
Its value is -7%.

What about the IC50 of the same molecule?
Its IC50 is 186 µM.

Biological target: T2, GABABR1a-SD1 (SD1-FITC-9mer complex) (Homo sapiens, UniProt Q9UBS5)
T2 construct: The synthetic gene encoding for residues 26-96 of the Sushi1 protein was cloned into a pFloat-SUMO vector; His-SUMO (with 3C protease site) (N, cleaved yes); made in house; host or cells: E. coli BL21(DE3)
Assay: Fluorescence polarization (FP) competition assay with FITC-9mer
Type: binding
Settings: competition with FITC-9mer for SD1
Experimental: Intrigued by the surprising results of the 5-mer, it was decided to set up a medium- to high-throughput screen to optimize the 5-mer sequence. Several assays were tested to find a reproducible, robust and cost-effective assay that is also suitable for high-throughput screening. A fluorescence polarization (FP) assay was selected. FP measurements are well-known for receptor binding assays. The assay is based on the rotational movement of fluorescently labelled molecules in solution. […] The FP assay was optimized using the FITC labelled sAPP 9-mer (FIG. 1).
as §1, §2

How did the IC50 turn out when `CC[C@H](C)[C@H](NC(=O)[C@H](N)CC(=O)O)C(=O)N[C@@H](Cc1ccc(O)cc1)C(=O)N[C@@H](Cc1c[nH]c2ccccc12)C(=O)N[C@@H](CO)C(=O)O` [VIB-0068902, dIYWS] was run?
The IC50 was 11.6 µM.

For `CC[C@H](C)[C@H](NC(=O)[C@H](N)CC(=O)O)C(=O)N[C@@H](Cc1ccc(O)cc1)C(=O)N[C@@H](Cc1ccc(O)cc1)C(=O)N[C@@H](CO)C(=O)O` [VIB-0068914, dIYYS] (H-[dD]IYYS-OH; N-terminus and C-terminus assumed), which IC50 is on record?
Its IC50 is 25.1 µM.

Same assay, conditions: peptide at 50 μM; inhibition of FITC-9mer binding to SD1

`CC[C@H](C)[C@H](NC(=O)[C@H](N)CC(=O)O)C(=O)N[C@@H](Cc1ccc(O)cc1)C(=O)N[C@@H](Cc1c[nH]c2ccccc12)C(=O)N[C@@H](CO)C(=O)Nc1nncs1` [VIB-0068870] was tested. Which inhibition at 50 µM did it give?
Its inhibition at 50 µM is 34.6%.

With `CC[C@H](C)[C@H](NC(=O)[C@H](N)CC(=O)O)C(=O)N[C@@H](Cc1ccc(O)cc1)C(=O)N[C@@H](Cc1c[nH]c2ccccc12)C(=O)N[C@@H](CO)C(=O)NCC(=O)N1CCN(C)CC1` [VIB-0068875] (H-[dD]IYWSG-{Piperazinyl(4-Me)}; N-terminus assumed) as the molecule, how does the inhibition at 50 µM read?
The inhibition at 50 µM was 41.8%.

Which inhibition at 50 µM does the source give for `CC[C@H](C)[C@H](NC(=O)[C@@H](CC(=O)O)NC(=O)C1(N)CCC1)C(=O)N[C@@H](Cc1ccc(O)cc1)C(=O)N[C@@H](Cc1c[nH]c2ccccc12)C(=O)N[C@@H](CO)C(=O)O` [VIB-0068884] (H-[Ac4c][dD]IYWS-OH; C-terminus assumed) here?
The inhibition at 50 µM was 41.5%.

Which inhibition at 50 µM does the source give for `CC[C@H](C)[C@H](NC(=O)[C@H](N)CC(=O)O)C(=O)N[C@@H](Cc1ccc(CO)cc1)C(=O)N[C@@H](Cc1c[nH]c2ccccc12)C(=O)N[C@@H](CO)C(=O)O` [VIB-0068896] (H-[dD]I[X4]WS-OH; N-terminus and C-terminus assumed) here?
The inhibition at 50 µM was 56.6%.

For `CC[C@H](C)[C@H](NC(=O)[C@H](N)CC(=O)O)C(=O)N[C@@H](Cc1ccc(O)cc1)C(=O)N[C@@H](Cc1c[nH]c2ccccc12)C(=O)N[C@@H](CO)C(=O)O` [VIB-0068902, dIYWS], which inhibition at 50 µM is on record?
The inhibition at 50 µM was 76.8%.

How did the inhibition at 50 µM turn out when `CC[C@H](C)[C@H](NC(=O)[C@H](N)CC(=O)O)C(=O)N[C@@H](Cc1cn(CC)c2ccccc12)C(=O)N[C@@H](Cc1c[nH]c2ccccc12)C(=O)N[C@@H](CO)C(=O)O` [VIB-0068904] (H-[dD]I[X1]WS-OH; N-terminus and C-terminus assumed) was run?
Its inhibition at 50 µM is 26.7%.

`CC[C@H](C)[C@H](NC(=O)[C@H](N)CC(=O)O)C(=O)N[C@@H](Cc1ccc(OC)c(C)c1)C(=O)N[C@@H](Cc1c[nH]c2ccccc12)C(=O)N[C@@H](CO)C(=O)O` [VIB-0068906] (H-[dD]I[X3]WS-OH; N-terminus and C-terminus assumed) was tested. Which inhibition at 50 µM did it give?
Its inhibition at 50 µM is 70.8%.

How did the inhibition at 50 µM turn out when `CC[C@H](C)[C@H](NC(=O)[C@H](N)CC(=O)O)C(=O)N[C@@H](Cc1cccc(C(=O)O)c1)C(=O)N[C@@H](Cc1c[nH]c2ccccc12)C(=O)N[C@@H](CO)C(=O)O` [VIB-0068908] was run?
Its inhibition at 50 µM is 53.1%.

Which inhibition at 50 µM does the source give for `CC[C@H](C)[C@H](NC(=O)[C@H](N)CC(=O)O)C(=O)N[C@@H](Cc1ccc(N)cc1)C(=O)N[C@@H](Cc1c[nH]c2ccccc12)C(=O)N[C@@H](CO)C(=O)O` [VIB-0068909] here?
Its inhibition at 50 µM is 44.2%.

Which inhibition at 50 µM does the source give for `CC[C@H](C)[C@H](NC(=O)[C@H](N)CC(=O)O)C(=O)N[C@@H](Cc1ccc(Cl)cc1)C(=O)N[C@@H](Cc1c[nH]c2ccccc12)C(=O)N[C@@H](CO)C(=O)O` [VIB-0068912] here?
Its inhibition at 50 µM is 66.2%.

With `CC[C@H](C)[C@H](NC(=O)[C@H](N)CC(=O)O)C(=O)N[C@@H](Cc1ccc(O)cc1)C(=O)N[C@@H](Cc1ccc(O)cc1)C(=O)N[C@@H](CO)C(=O)O` [VIB-0068914, dIYYS] (H-[dD]IYYS-OH; N-terminus and C-terminus assumed) as the molecule, how does the inhibition at 50 µM read?
Its inhibition at 50 µM is 72.4%.

PVHMS [VIB_P44] was tested. Which inhibition at 50 µM did it give?
Its inhibition at 50 µM is -7%.
